In article PMC7058303:

Target: Sus1 from S. cerevisiae (recombinant) (Saccharomyces cerevisiae) (UniProt Q6WNK7)
Assay: SEC; Superdex 75 10/300 GL, calibrated with molecular weight markers; non-dissociating conditions; elution volume 12 ml

**Q.** “Sus1 from S. cerevisiae (recombinant) (from UniProt Q6WNK7 1-96) (natural protein)” was tested. Which stoichiometry N did it give?
**A.** 3
